Here are results for one sequence from patent US8221773B2, “Hydrogels and uses thereof” (University of Delaware, priority 2004, dated 2012).

The nature of data set [1]: Oscillatory rheology of peptide hydrogels (storage and loss moduli). It is filed as physicochemical. The source says:
(gel storage modulus of ˜600 Pa). Gel formation continued to mature after two hours with a doubling of the gel modulus to ~1200 Pa. An equilibrium storage modulus of ~1600 Pa was reached after several hours of gel formation. This equilibrium behavior is clearly shown by the linear, frequency independent moduli measurements in FIG. 6B. For comparison, the storage modulus of strawberry gelatin is ˜50 Pa (data not shown).
In FIG. 6D, a time sweep experiment identical to that performed during the original gel formation was run immediately after the application of 1000% strain at 6 Hz for 180 seconds. The initial modulus of the reforming gel was 650 Pa with 80% of the equilibrium modulus recovered after only 30 minutes making this a quick recovering and relatively strong hydrogel. For comparison, a 2 wt % gelatin hydrogel takes over 4 h to recover 80% of its equilibrium modulus after shear thinning.
Rheology: Dynamic time and frequency sweep experiments were performed in a strain controlled Rheometrics ARES rheometer with 25.0 mm diameter parallel plate geometry and 0.5 mm gap distance. Lyophilized peptide was dissolved in de-ionized water and buffer or cell growth media solution at 10° C. in order to suppress folding and gelation before the sample is loaded into the rheometer. After the sample was loaded, temperature was increased to either 20° C. or 37° C. Standard low viscosity mineral oil was used to insulate the sides of the plate in order to suppress evaporation. […] Strain sweep experiments were performed to determine the linear viscoelastic regime in which all rheological experiments were performed. Dynamic time sweep experiments were performed with a frequency and strain of 6 rad/s and 1%, respectively. Frequency sweep experiments were performed with a frequency and strain of 0.1-100 rad/s and 5%, respectively.

For data set [2], the system named is NIH 3T3 fibroblasts. The experiment in a line: 3H thymidine cell seeding / proliferation assay. It is filed as cell-based, mouse. The conditions noted are these: 2 wt. % hydrogel, 48 hours. The source says:
A quantitative assay that could be used to measure the rate of cell proliferation was developed. This allows gels having different material properties and constituent peptide sequences to be compared in terms of how well they support proliferation. Standard colorimetric assays such as the MTT and XTT have proven unsuitable for use with hydrogels of the invention. These assays rely on the ability of cells to metabolize tetrazolium derivatives to their corresponding colored formazan analogs. The analogs permeate into the hairpin hydrogel and become immobilized making subsequent quantification by UV spectroscopy unreliable. This problem has been addressed by utilizing ^3H thymidine-based assays in which thymidine is incorporated into proliferating cells undergoing DNA replication. […] The assay is two-fold. […] Second, a proliferation rate may be determined for a given material by seeding the cells (at optimal density) onto the material and determining the number of cells undergoing DNA replication at discrete time points up to 48 hours when confluency is reached. […] Unincorporated thymidine may be washed out (washes may be assayed until ^3H thymidine is no longer detected) and the cells sacrificed for scintillation counting. […] Therefore, for each new material, similar cell seeding experiments may be performed before rates of proliferation are determined. […]

The mark [3] stands for this setting: 2 wt %, pH 7.4, 20 mM NaCl, 20° C.
The mark [4] stands for this setting: 2 wt %, pH 9, 1000% strain at 6 Hz for 180 s (FIG. 6D legend).
The mark [5] stands for this setting: 2 wt %, serum free DMEM cell growth media, 37° C.

“Also recorded” adds a separate entry of the source. Where no end group is shown, it is not given here.

On to “VKVKVKVK V^DPPT KVKVKVKV-NH2 (not fully specified (C-terminus)) [MAX1]”, for which the “rate of self-assembly leading to a rheological response, compared to MAX4” value in data set [1] (1 wt % preparations, 40° C, pH 9.0, 125 mM Borate, 10 mM NaCl) is recorded as “faster”. Also, the “G′ values (frequency sweep)” value in data set [1] (2 wt %, cell growth media, 37° C) was around 2500 Pa. Besides, the “G′ recovered instantaneously after cessation of shear, of initial value” in data set [1] (2 wt %, cell growth media, 37° C, after 1000% strain at 6 rad/s) was around 50%. Moreover, the “hydrogel rigidity (storage modulus)” value in data set [1] (2 wt %, pH 7, NaCl final concentration 150 mM, data not shown) came out at 3000 Pa. In data set [1] (setting [3]), the “G′ during lag time” value is on record as 2-3 Pa and the “lag time before G′ increases” value is 3000 s. For the same sequence, in data set [1] (2 wt %, pH 7.4, 20 mM NaCl, 20° C, after 2.5 hr gelation), the “storage modulus (G′)” value is recorded as around 100 Pa. In data set [1] (2 wt %, pH 7.4, 150 mM NaCl, 20° C), the “lag time before G′ increases” value is around 1000 s. Also, the “time of gelation to a material of useful rigidity” value in data set [1] (2 wt %, pH 7.4, 150 mM NaCl, 37° C) is “about 10 minutes”. For the same sequence, the “G′ value (frequency sweep)” value in data set [1] (2 wt %, pH 7.4, 150 mM NaCl, 37° C, after 2.5 hours gelation) is given as “around 2000 Pa”. Also, the “lag time before G′ increases” value in data set [1] (2 wt %, pH 7.4, 400 mM NaCl, 20° C) is given as “does not exist”. The “equilibrium storage modulus (G′)” value in data set [1] (2 wt %, pH 7.4, 400 mM NaCl, 20° C, after 2.5 hr gelation) is around 3000 Pa. Further, in data set [1] (setting [4]), the “former rigidity regained immediately after large strain” value was around 75% and the “time to regain prestrain rigidity” value fell in the range of 10 to 20 min. Moreover, the “equilibrium modulus recovered after 30 minutes” value in data set [1] (2 wt %, pH 9, after 1000% strain at 6 Hz for 180 seconds) is 80%. Besides, the “initial modulus of the reforming gel” value in data set [1] (2 wt %, pH 9, immediately after 1000% strain at 6 Hz for 180 seconds) is 650 Pa. Further, the “storage moduli (rigidity) of gels prepared by protocol 1” value in data set [1] (2 wt %, pH 9 borate buffer trigger, then bathed in DMEM with 10% calf serum) is listed as “about 1600 Pa”. For the same sequence, in data set [1] (setting [5]), the “G′ at the end of 2 hours of gelation” value was determined as 2300 Pa and the “G″ at the end of 2 hours of gelation” value came out at 50 Pa. The “G′ values” in data set [1] (pH 7.4 without added NaCl, after 3 hours, no gelation) is on record as “approximately 1 Pa”. For the same sequence, in data set [1] (pH 9), the “crossover concentration separating liquid-like (G″>G′) and gel-like (G′>G″) response” value is “about 1 wt %”. Also, the “optimal cell seeding density for 2 day proliferation assays” value in data set [2] is listed as 40,000 fibroblasts. In addition, the “cell proliferation on hydrogel versus tissue culture polystyrene control” value in data set [2] (3H thymidine counts) is “more cells have grown on the hydrogel than on the control surface; also recorded: higher than the control”.
